Patent publication US20250027068

Target: pooled human IgG (human IgG1,2,3 and 4)

Protein	Enzyme Activity Endpoint Assay: Fab′2	Enzyme Activity Endpoint Assay: Fc	Enzyme Activity Endpoint Assay: IgG	Enzyme Activity Endpoint Assay: scIgG	Enzyme Activity Endpoint Assay (purified): Fab'2	Enzyme Activity Endpoint Assay (purified): Fc	Enzyme Activity Endpoint Assay (purified): IgG	Enzyme Activity Endpoint Assay (purified): scIgG
PRT-316 (protein) MTITSVWTKGVTPPTPEDFRKNNEDVLHAPYVANQGWYDITKTFDGKDNLLCGAATAGNMLHWWFDQNKEEIERYLKKHPEKQKIIFNNQELFDVKAAIDTKDSQTNSKLFNYFRDKAFPNLSARQLGVMPDLVLDMFINGYYLNLGKTQSTDVNRPYQDKDKRGGIFDAVFTRGDQTTLLTARHDLKNKGLNEISDLIKQELTEGKALALSHTYANVRINHVINLWGADFDAEGNLIAIYVTDSDANASIGMKKYFVGRNANGKVAISAKKIEGDNIGAQVLGLFTLSTGQDIWQKLS	772 ng/µL	347 ng/µL	80 ng/µL	0 ng/µL	–	–	–	–
PRT-317 (protein) MTITSVWTKGVTPPTPEDFRENNEDVLHAPYVANQGWYDITKTFDGKDNLLCGAATAGNMLHWWFDQNKEEIERYLKKHPEKQKIIFNNQELFDVKAAIDTKDSQTNSKLFNYFRDKAFPNLSARQLGVMPDLVLDMFINGYYLNLGKTQSTDVNRPYQDKDKRGGIFDAVFTRGDQTTLLTARHDLKNKGLNEISDLIKQELTEGKALALSHTYANVRINHVINLWGADFDAEGNLIAIYVTDSDANASIGMKKYFVGRNANGKVAISAKKIEGDNIGAQVLGLFTLSLGQDIWQKLS	798 ng/µL	453 ng/µL	0 ng/µL	0 ng/µL	–	–	–	–
PRT-325 (protein) MTITSVWTKGVTPPTPEDFRENNEDVLHAPYVANQGWYDITKTFDGKDNLLCGAATAGNMLHWWFDQNKEEIERYLKKHPEKQKIIFGNQELFDVKAAIDTKDSQTNSKLFDYFRDKAFPNLSARQLGVMPDLVLDMFINGYYLNLGKTQSTDVNRPYQDKDKRGGIFDAVFTRGDQTTLLTARHDLKNKGLNEISDLIKQELTEGKALALSHTYANVRINHVINLWGADFDAEGELIAIYVTDSDANPSIGMKKYFVGRNANGKVAISAKKIEGDNIGAQVLGLFTLSTGQDIWQKLS	–	–	–	–	930 ng/µL	466 ng/µL	78 ng/µL	0 ng/µL
PRT-324 (protein) MTITSVWTKGVTPPTPEDFRENNEDVLHAPYVANQGWYDITKTFDGKDNLLCGAATAGNMLHWWFDQNKEEIERYLKKHPEKQKIIFGNQELFDVKAAIDTKDSQTNSKLFNYFRDKAFPNLSARQLGVMPDLVLDMFINGYYLNLGKTQSTDVNRPYQDKDKRGGIFDAVFTRGDQTTLLTARHDLKNKGLNEISDLIKQELTEGKALALSHTYANVRINHVINLWGADFDAEGNLIAIYVTDSDANPSIGMKKYFVGRNANGKVAISAKKIEGDNIGAQVLGLFTLSTGQDIWQKLS	665 ng/µL	291 ng/µL	0 ng/µL	0 ng/µL	–	–	–	–
PRT-332 (protein) MTITSVWTKGVTPPTPEDFRENNEDVLHAPYVANQGWYDITKTFDGKDNLLCGAATAGNMLHWWFDQNKEEIERYLKKHPEKQKIIFNNQEWFDVKAAIDTKDSQTNSKLFNYFRDKAFPGLSARQLGVFPDLVLDMFINGYYLNLPKTQSTDVNRPYQDKDKRGGIFDAVFTRGVQTTLLTARHDLKNKGLNEISDLIKQELTEGKALALSHTYANVRINHVINLWGADFDAEGNLIAIYVTDSDANASIGMKKYAVGVNANGKVAISAKKIEGDNIGAQVLGLFTLSTGQDIWQKLS	409 ng/µL	277 ng/µL	0 ng/µL	177 ng/µL	–	–	–	–
PRT-333 (protein) MTITSVWTKGVTPPTPEDFRENNEDVLHAPYVANQGWYDITKTFDGKDNLLCGAATAGNMLHWWFDQNKEEIERYLKKHPEKQKIIFGNQELFDVKAAIDTKDSQTNSKLFNYFRDKAFPGLSARQLGVFPDLVLDMFINGYYLNLGKTQSTDVNRPYQDKDKRGGIFDAVFTRGVQTTLLTARHDLKNKGLNEISDLIKQELTEGKALALSHTYANVRINHVINLWGADFDAEGNLIAIYVTDSDANPSIGMKKYFVGRNANGKVAISAKKIEGDNIGAQVLGLFTLSTGQDIWQKLS	–	–	–	–	794 ng/µL	448 ng/µL	0 ng/µL	0 ng/µL
PRT-276 (protein) MVTSVWTKGVTPPTDFIYGEDVLHAPYKAGQGWYDITKTFNGKDNLLCGAATAGNMLHWWFDQNKEQIENYLKKHPEKQKIIFNNQELFDLKAAIDTKDSQLDSKLFEYFLEKAFPNLSTKHLGVFPDHVIDMFINGYRLSLLNHGPTPVKRGSKDKRGGIFDAVFTRGVQSKLLTNRHDLKNKTLKEISDLIKQELTEGKALGISHTYANVRINHVINLWGADFDAEGNLEAIAVTDSDTNASIGMKKYFVGVNSSGKVAISAKEIEEDNIGAQVLGLFTLSTGQDIWNQTN	912 ng/µL	383 ng/µL	0 ng/µL	0 ng/µL	–	–	–	–
PRT-292 (protein) MVTSVWTKGVTPPADFTQGEDVFHAPYDANQGWYDITKTFNGKDDLLCGAATAGNMLHWWFDQNKEYIEAYLKKHPEKQKIMFGDQELLDVRKAINTKGSQKNSELFNYFRDKAFPNLSARRLGVMPDLVLDMFINGYYLNVTKTQTTDVNRTYQEKDKRGGIFDAVFTRGDQSKLLTSRHDFKEKGLKEISDLIKQELTEGKALGLSHTYANVRISHVINLWGADFDSDGNLKAIYVTDSDSNASIGMKKYFVGVNSAGKVAISAKEIKEDNIGAQVLGLFTLSTGQDIWNQTN	758 ng/µL	359 ng/µL	0 ng/µL	0 ng/µL	–	–	–	–
PRT-300 (protein) MVTSVWTKGVTPPTDFIKGEDVFHAPYKAGQGWYDITKTFNGKDDLLCGAATAGNMLHWWFDQNKEYIEAYLKKHPEKQKIMFGDQELLDVRKAINTKGSQKNSELFNYFRDKAFPNLSARRLGVMPDLVLDMFINGYYLNVTKTQTTDVNRTYQEKDKRGGIFDAVFTRGDQSKLLTSRHDFKEKGLKEISDLIKQELTEGKALGLSHTYANVRLNHVINLWGADFDSDGNLKAIYVTDSDSNASIGMKKYFVGVNSSGKVAISAKEIKEDNIGAQVLGLFTLSTGQDIWNQTN	333 ng/µL	274 ng/µL	276 ng/µL	43 ng/µL	–	–	–	–
PRT-293 (protein) MVTSVWTKGVTPPADFTQGEDVFHAPYVANQGWYDITKTFNGKDDLLCGAATAGNMLHWWFDQNKEYIEAYLKKHPEKQKIMFGDQELLDVRKAINTKGSQKNSELFNYFRDKAFPNLSARRLGVMPDLVLDMFINGYYLNVTKTQTTDVNRTYQEKDKRGGIFDAVFTRGDQSKLLTSRHDFKEKGLKEISDLIKQELTEGKALGLSHTYANVRLNHVINLWGADFDSDGNLKAIYVTDSDSNASIGMKKYGVGVNSAGKVAISAKEIKEDNIGAQVLGLFTLSTGQDIWNQTN	11 ng/µL	0 ng/µL	1260 ng/µL	0 ng/µL	–	–	–	–
PRT-301 (protein) MVTSVWTKGVTPPTDFIKGEDVFHAPYDAGQGWYDITKTFNGKDDLLCGAATAGNMLHWWFDQNKEYIEAYLKKHPEKQKIMFGDQELLDVRKAINTKGSQKNSELFNYFRDKAFPNLSARRLGVMPDLVLDMFINGYYLNVTKTQTTDVNRTYQEKDKRGGIFDAVFTRGDQSKLLTSRHDFKEKGLKEISDLIKQELTEGKALGLSHTYANVRISHVINLWGADFDSDGNLKAIYVTDSDSNASIGMKKYFVGVNSAGKVAISAKEIKEDNIGAQVLGLFTLSTGQDIWNQTN	0 ng/µL	0 ng/µL	1680 ng/µL	0 ng/µL	–	–	–	–
PRT-284 (protein) MVTSVWTKGVTPPAKFTQGEDVFHAPYVANQGWYDITKTFNGKDDLLCGAATAGNMLHWWFDQNKEKIEAYLKKHPDKQKIMFGDQELLDVRKVINTKGDQTNSELFNYFRDKAFPNLSARRIGVMPDLVLDMFINGYYLNVYKTQTTDVNRTYQEKDRRGGIFDAVFTRGDQSKLLTSRHDFKEKNLKEISDLIKKELTEGKALGLSHTYANVRLNHVINLWGADFDSNGNLKAIYVTDSDSNASIGMKKYGVGVNSAGKVAISAKEIKEDNIGAQVLGLFTLSTGQDSWNQTN	72 ng/µL	184 ng/µL	45 ng/µL	483 ng/µL	–	–	–	–
PRT-308 (protein) MQITSVWTKGVTPLTPEQFRENNEDVIHAPYLAHQGWYDITKAFDGKDNLLCGAATAGNMLHWWFDQNKTEIEAYLSKHPEKQKIIFNNQELFDLKAAIDTKDSQTNSQLFNYFRDKAFPNLSARQLGVMPDLVLDMFINGYYLNVGKTQSTDVNRPYQDKDKRGGIFDAVFTRGDQTTLLTARHDLKNKGLNDISTIIKQELTEGRALALSHTYANVSISHVINLWGADFDAEGNLEAIYVTDSDANASIGMKKYFVGRNAHGHVAISAKKIEGENIGAQVLGLFTLSLGKDIWQKLS	405 ng/µL	204 ng/µL	59 ng/µL	106 ng/µL	–	–	–	–
PRT-309 (protein) MQITSVWTKGVTPLTPEQFRENNEDVIHAPYLAHQGWYDITKAFDGKDNLLCGAATAGNMLHWWFDQNKTEIEAYLSKHPEKQKIIFGNQELFDLKAAIDTKDSQTNSQLFDYFRDKAFPNLSARQLGVMPDLVLDMFINGYYLNVGKTQSTDVNRPYQDKDKRGGIFDAVFTRGDQTTLLTARHDLKNKGLNDISTIIKQELTEGRALALSHTYANVSISHVINLWGADFDAEGNLEAIYVTDSDANASIGMKKYFVGRNAHGHVAISAKKIEGENIGAQVLGLFTLSSGKDQWQKLS	0 ng/µL	0 ng/µL	1650 ng/µL	0 ng/µL	–	–	–	–
